Assay results reported in article PMC7111720.
Read-outs that look alike come from different tables or passages of the source.

T1: p22 (Tomato chlorosis virus (isolate AT80/99), UniProt Q001T4 1-193)
T1 sequence: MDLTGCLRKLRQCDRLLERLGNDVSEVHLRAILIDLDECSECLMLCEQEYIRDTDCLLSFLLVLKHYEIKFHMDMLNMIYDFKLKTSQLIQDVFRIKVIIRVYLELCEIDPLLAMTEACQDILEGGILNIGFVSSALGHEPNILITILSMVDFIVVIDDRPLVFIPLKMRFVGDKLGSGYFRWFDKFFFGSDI


Assays:
[1] = molecular target: T1, p22; assay: EMSA
[2] = molecular target: T1, p22; assay: EMSA; remark: listed apart in the source

| Binder | binding result [1] | binding result [2] |
| --- | --- | --- |
| 21 nt small dsRNA, DIG (dsRNA, 3'-DIG on antisense strand) RNA 1: ACUGGAGUUGUCCCAAUUCUU RNA 2: GAAUUGGGACAACUCCAGUGA | no binding |  |
| 21 nt small dsRNA, free 3' OH (dsRNA) RNA 1: ACUGGAGUUGUCCCAAUUCUU RNA 2: GAAUUGGGACAACUCCAGUGA |  | no binding |
